Measurements published in paper PMC4255369, “Identification of structural determinants on tau protein essential for its pathological function: novel therapeutic target for tau immunotherapy in Alzheimer’s disease” (Alzheimer's Research & Therapy, 2014).

Columns and labels:
Conditions in all cases: both partners purified
[1] = target: T1, tau 299–304 (6-mer peptide from MTBR2, identical to tau 362–367 from MTBR4) (Homo sapiens); assay: ELISA; competitive ELISA; plates coated with 250 ng/well purified tau 151-391/4R; DC8E8 0.6 μg/ml (3.8 nM), 60 μl mixed with 40 μl of 200 μM peptide, 1 hour at 25°C, then 1 hour at 25°C on the plate
T1 construct: numbers count on: the longest human tau isoform (2N4R); source: synthetic peptide, bought: EZBiolab (>95% purity)
T1 chain: HVPGGG

[2] = target: T2, tau 330–335 (6-mer peptide from MTBR3) (Homo sapiens); assay: as above
T2 construct: human tau residues 330-335; numbers count on: the longest human tau isoform (2N4R); also called HKPGGG; source: synthetic peptide, bought: EZBiolab (>95% purity)
T2 chain: HKPGGG

[3] = target: T3, tau 268–273 (6-mer peptide from MTBR1) (Homo sapiens); assay: as above
T3 construct: numbers count on: the longest human tau isoform (2N4R); also called HQPGGG; source: synthetic peptide, bought: EZBiolab (>95% purity)
T3 chain: HQPGGG

[4] = target: T4, mis-disordered tau 151-391/3R (Homo sapiens, UniProt P10636-5); assay: SPR; Biacore 3000, CM5; DC8E8 captured (230 to 250 RU) by coupled polyclonal anti-mouse antibody; twofold serial dilutions of tau proteins injected at 50 μl/min; 25°C, PBS pH 7.4 with 0.005% P20; fitted to a two-phase reaction model
T4 construct: numbers count on: the longest human tau isoform (2N4R); also called three-repeat mis-disordered truncated tau protein

[5] = target: T5, human tau protein isoform 2N4R (Homo sapiens, isoform 2N4R (Tau-F, 441 …, UniProt P10636-8)); assay: as above
T5 construct: human tau, longest isoform 2N4R (four repeats, two N-terminal inserts); also called full-length tau isoform 2N4R; physiological tau

[6] = target: T6, human tau protein isoform 2N3R (Homo sapiens, UniProt P10636-5); assay: as above
T6 construct: human tau, isoform 2N3R (three repeats, two N-terminal inserts); also called three-repeat tau protein isoform 2N3R; full-length three-repeat tau protein

[7] = target: T7, mis-disordered tau protein 151-391/4R (human, UniProt P10636-8); assay: as above
T7 construct: numbers count on: the longest human tau isoform (2N4R); source: purified
T7 sequence (P10636 468-708): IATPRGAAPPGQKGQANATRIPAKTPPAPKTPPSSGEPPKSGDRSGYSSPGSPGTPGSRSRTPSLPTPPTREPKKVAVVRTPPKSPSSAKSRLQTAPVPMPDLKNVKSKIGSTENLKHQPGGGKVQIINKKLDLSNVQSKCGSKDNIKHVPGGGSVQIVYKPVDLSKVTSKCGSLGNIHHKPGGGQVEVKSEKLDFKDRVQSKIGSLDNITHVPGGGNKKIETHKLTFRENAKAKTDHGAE

T4 sequence (P10636 other isoform, or with tags, fused parts or gaps): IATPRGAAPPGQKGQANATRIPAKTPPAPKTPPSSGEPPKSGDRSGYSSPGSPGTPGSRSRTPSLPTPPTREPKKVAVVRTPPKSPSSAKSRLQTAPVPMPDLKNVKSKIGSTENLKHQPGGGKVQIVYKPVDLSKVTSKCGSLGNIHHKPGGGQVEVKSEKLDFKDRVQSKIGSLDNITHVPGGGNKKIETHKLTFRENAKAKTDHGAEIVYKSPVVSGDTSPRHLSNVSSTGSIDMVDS
T5 sequence (P10636 other isoform, or with tags, fused parts or gaps): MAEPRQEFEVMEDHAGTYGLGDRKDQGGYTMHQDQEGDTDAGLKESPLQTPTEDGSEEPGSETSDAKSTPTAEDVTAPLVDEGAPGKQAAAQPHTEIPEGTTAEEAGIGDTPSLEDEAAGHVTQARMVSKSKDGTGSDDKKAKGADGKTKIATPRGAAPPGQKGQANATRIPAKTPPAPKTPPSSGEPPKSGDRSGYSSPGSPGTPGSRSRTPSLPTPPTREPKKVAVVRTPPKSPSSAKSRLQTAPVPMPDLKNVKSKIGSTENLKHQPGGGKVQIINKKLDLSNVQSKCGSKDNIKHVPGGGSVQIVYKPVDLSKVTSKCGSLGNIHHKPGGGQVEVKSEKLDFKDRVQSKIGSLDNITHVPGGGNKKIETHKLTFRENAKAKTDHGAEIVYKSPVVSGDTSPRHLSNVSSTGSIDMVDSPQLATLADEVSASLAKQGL
T6 sequence (P10636 other isoform, or with tags, fused parts or gaps): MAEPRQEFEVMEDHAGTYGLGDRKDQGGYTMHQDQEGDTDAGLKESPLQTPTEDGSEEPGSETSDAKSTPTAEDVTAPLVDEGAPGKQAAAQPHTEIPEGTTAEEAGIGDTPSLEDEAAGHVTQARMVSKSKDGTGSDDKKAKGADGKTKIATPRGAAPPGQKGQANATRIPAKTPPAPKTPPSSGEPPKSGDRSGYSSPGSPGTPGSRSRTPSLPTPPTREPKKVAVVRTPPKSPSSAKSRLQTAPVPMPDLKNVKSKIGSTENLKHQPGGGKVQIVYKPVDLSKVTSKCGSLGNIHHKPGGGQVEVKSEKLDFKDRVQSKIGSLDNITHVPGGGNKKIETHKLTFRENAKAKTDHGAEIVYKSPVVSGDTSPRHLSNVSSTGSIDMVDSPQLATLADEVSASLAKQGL

B1: monoclonal antibody DC8E8 (antibody, V domains shown)
VH: QVQLQQSGPELVKPGTSVKMPCKASGYIFTDYVISWVKQRTGQGLEWIGEIFPRSGSTYYNEKFKGKATLTADKSSNTAYMQLSSVTSEDSAVYFCARDYYGTSFAMDYWGQGTSVTVSS
VL: DIVMSQSPSSLAVSAGEKVTMSCKSSQSLLNSRTRKNYLAWYQQKPGQSPKLLIYWASTRESGVPDRFTGSGSGTDFTLTISSVQAEDLAVYYCKQSFYLRTFGGGTKLDIK
notes: the Fab of DC8E8 is deposited as PDB 4OZ4 (heavy chain of the Fab); the Fab of DC8E8 is deposited as PDB 4OZ4 (light chain); The crystal structure (4OZ4) is of the papain Fab without antigen; also called mAb DC8E8; source: mouse hybridoma (Balb/c spleen cells fused with NS0); hybridoma culture supernatant (indirect ELISA); purified antibody (protein G Sepharose)
[1]
  binding result: binds
[2]
  binding result: binds
[3]
  binding result: binds
[4]
  fold affinity against full-length tau isoform 2N3R: 25 fold
  koff: 0.08 s⁻¹
  kon: 150000 M⁻¹ s⁻¹
[5]
  koff: 0.04 s⁻¹
  kon: 440000 M⁻¹ s⁻¹
[6]
  koff: 0.4 s⁻¹
  kon: 28000 M⁻¹ s⁻¹
[7]
  fold affinity against full-length tau isoform 2N4R: 7 fold
  koff: 0.04 s⁻¹
  kon: 2.9e+06 M⁻¹ s⁻¹
